Conditions in all cases: pH 7; 25 °C
Substrate in one data set: p-NP-C4
Substrate in a further data set: triacetin
Substrate in the next data set: tributyrin
Substrate in a further data set: tripropionin
Substrate in a further data set: vinyl acetate
Substrate in the next data set: vinyl butyrate
Substrate in the next data set: vinyl laurate
Substrate in a further data set: vinyl propionate

B1: unnamed (protein)
chain: MAKKDEHLRKPEWLKIKLNTNENYTGLKKLMRENNLHTVCEEAKCPNIHECWAVRRTATFMILGSVCTRACRFCAVKTGLPTELDLQEPERVADSVALMNLKHAVITAVARDDQKDGGAGIFAETVRAIRRKSPFTTIEVLPSDMGGNYDNLKTLMDTRPDILNHNIETVRRLTPRVRARATYDRSLEFLRRAKEMQPDIPTKSSIMIGLGETKEEIIEVMDDLLANNVDIMAIGQYLQPTKKHLKVQKYYHPDEFAELKEIAMQKGFSHCEAGPLVRSSYHADEQVNEASKKRQAQA
The term Km denotes the concentration of substrate that gives half-maximal velocity. A word on the kcat: it is the number of substrate molecules converted per active site and unit of time at saturation. Usually kcat/Km stands for the second-order rate constant that governs catalysis at low substrate concentration. For B1, the Km in the data set with p-NP-C4 stood at 0.75 mM; in the data set with triacetin, 110 mM; with tributyrin, 0.4 mM; with tripropionin, 12 mM; with vinyl acetate, 280 mM; with vinyl butyrate it was 40 mM. Besides, the Km with vinyl laurate amounted to 5 mM; with vinyl propionate, 75 mM. Besides, the catalytic constant (kcat) in the data set with p-NP-C4 worked out at 50 s⁻¹; in the data set with triacetin it was 120 s⁻¹; with tributyrin, 100 s⁻¹; in the data set with tripropionin it was 150 s⁻¹; with vinyl acetate, 100 s⁻¹; with vinyl butyrate, 635 s⁻¹. The kcat came to 145 s⁻¹ with vinyl laurate and 1940 s⁻¹ with vinyl propionate. In addition, the kcat/Km in the data set with p-NP-C4 was determined as 66700 M⁻¹ s⁻¹; in the data set with triacetin it was 1090 M⁻¹ s⁻¹; with tributyrin, 250000 M⁻¹ s⁻¹; in the data set with tripropionin, 12500 M⁻¹ s⁻¹; with vinyl acetate, 357 M⁻¹ s⁻¹; in the data set with vinyl butyrate it was 15900 M⁻¹ s⁻¹. Moreover, the specificity constant (kcat/Km) in the data set with vinyl laurate stood at 29000 M⁻¹ s⁻¹; with vinyl propionate, 25800 M⁻¹ s⁻¹.

B2: unnamed (protein)
chain: MEPGSKSVSRSDWQPEPHQRPITPLEPGPEKTPIAQPESKTLQGSNTQQKPASNQRPLTQQETPAQHDAESQKEPRAQQKSASQEEFLAPQKPAPQQSPYIQRVLLTQQEAASQQGPGLGKESITQQEPALRQRHVAQPGPGPGEPPPAQQEAESTPAAQAKPGAKREPSAPTESTSQETPEQSDKQTTPVQGAKSKQGSLTELGFLTKLQELSIQRSALEWKALSEWVTDSESESDVGSSSDTDSPATMGGMVAQGVKLGFKGKSGYKVMSGYSGTSPHEKTSARNHRHYQDTASRLIHNMDLRTMTQSLVTLAEDNIAFFSSQGPGETAQRLSGVFAGVREQALGLEPALGRLLGVAHLFDLDPETPANGYRSLVHTARCCLAHLLHKSRYVASNRRSIFFRTSHNLAELEAYLAALTQLRALVYYAQRLLVTNRPGVLFFEGDEGLTADFLREYVTLHKGCFYGRCLGFQFTPAIRPFLQTISIGLVSFGEHYKRNETGLSVAASSLFTSGRFAIDPELRGAEFERITQNLDVHFWKAFWNITEMEVLSSLANMASATVRVSRLLSLPPEAFEMPLTADPTLTVTISPPLAHTGPGPVLVRLISYDLREGQDSEELSSLIKSNGQRSLELWPRPQQAPRSRSLIVHFHGGGFVAQTSRSHEPYLKSWAQELGAPIISIDYSLAPEAPFPRALEECFFAYCWAIKHCALLGSTGERICLAGDSAGGNLCFTVALRAAAYGVRVPDGIMAAYPATMLQPAASPSRLLSLMDPLLPLSVLSKCVSAYAGAKTEDHSNSDQKALGMMGLVRRDTALLLRDFRLGASSWLNSFLELSGRKSQKMSEPIAEPMRRSVSEAALAQPQGPLGTDSLKNLTLRDLSLRGNSETSSDTPEMSLSAETLSPSTPSDVNFLLPPEDAGEEAEAKNELSPMDRGLGVRAAFPEGFHPRRSSQGATQMPLYSSPIVKNPFMSPLLAPDSMLKSLPPVHIVACALDPMLDDSVMLARRLRNLGQPVTLRVVEDLPHGFLTLAALCRETRQAAELCVERIRLVLTPPAGAGPSGETGAAGVDGGCGGRH
Turning to B2, the Michaelis constant (Km) with p-NP-C4 is 1 mM; with tributyrin, 0.4 mM; with tripropionin, 15 mM; with vinyl acetate, 170 mM; with vinyl butyrate, 11 mM; with vinyl laurate, 3 mM. Moreover, the Km in the data set with vinyl propionate is 70 mM. The kcat in the data set with p-NP-C4 was 190 s⁻¹; with tributyrin, 18 s⁻¹; with tripropionin, 7 s⁻¹; with vinyl acetate it was 140 s⁻¹; with vinyl butyrate, 210 s⁻¹; with vinyl laurate it was 31 s⁻¹. For the same protein, in the data set with vinyl propionate, the kcat came to 105 s⁻¹. Besides, the specificity constant (kcat/Km) with p-NP-C4 worked out at 190000 M⁻¹ s⁻¹; in the data set with tributyrin, 45000 M⁻¹ s⁻¹; in the data set with tripropionin, 467 M⁻¹ s⁻¹; in the data set with vinyl acetate, 824 M⁻¹ s⁻¹; with vinyl butyrate, 19100 M⁻¹ s⁻¹; in the data set with vinyl laurate, 10300 M⁻¹ s⁻¹. In addition, in the data set with vinyl propionate, the catalytic efficiency (kcat/Km) turned out to be 1500 M⁻¹ s⁻¹.

B3: unnamed (protein)
chain: MVLKQRANYLGFLIVFFTAFLVEAVPIKRQSNSTVDSLPPLIPSRTSAPSSSPSTTDPEAPAMSRNGPLPSDVETKYGMALNATSYPDSVVQAMSIDGGIRAATSQEINELTYYTTLSANSYCRTVIPGATWDCIHCDATEDLKIIKTWSTLIYDTNAMVARGDSEKTIYIVFRGSSSIRNWIADLTFVPVSYPPVSGTKVHKGFLDSYGEVQNELVATVLDQFKQYPSYKVAVTGHSLGGATALLCALDLYQREEGLSSSNLFLYTQGQPRVGDPAFANYVVSTGIPYRRTVNERDIVPHLPPAAFGFLHAGEEYWITDNSPETVQVCTSDLETSDCSNSIVPFTSVLDHLSYFGINTGLCT
For the protein B3, the Michaelis-Menten constant (Km) with p-NP-C4 was 2.1 mM; with triacetin, 210 mM; in the data set with tributyrin it was 0.45 mM; in the data set with tripropionin it was 18 mM; with vinyl acetate it was 120 mM; with vinyl butyrate it was 15 mM. For the same protein, the Michaelis constant (Km) with vinyl laurate was determined as 2 mM; in the data set with vinyl propionate it was 35 mM. The turnover number (kcat) with p-NP-C4 stood at 420 s⁻¹; with triacetin, 10 s⁻¹; with tributyrin it was 1080 s⁻¹; in the data set with tripropionin, 200 s⁻¹; in the data set with vinyl acetate, 950 s⁻¹; with vinyl butyrate, 5390 s⁻¹. For the same protein, the kcat with vinyl laurate is 5400 s⁻¹; with vinyl propionate, 3680 s⁻¹. Also, the kcat/Km with p-NP-C4 is 200000 M⁻¹ s⁻¹; in the data set with triacetin, 47.6 M⁻¹ s⁻¹; with tributyrin, 2.4e+06 M⁻¹ s⁻¹; with tripropionin it was 11100 M⁻¹ s⁻¹; with vinyl acetate it was 7920 M⁻¹ s⁻¹; with vinyl butyrate, 359000 M⁻¹ s⁻¹. The kcat/Km in the data set with vinyl laurate amounted to 2.7e+06 M⁻¹ s⁻¹; in the data set with vinyl propionate, 105000 M⁻¹ s⁻¹.

B4: unnamed (protein)
chain: AEVCYSHLGCFSDEKPWAGTSQRPIKSLPSDPKKINTRFLLYTNENQNSYQLITATDIATIKASNFNLNRKTRFIIHGFTDSGENSWLSDMCKNMFQVEKVNCICVDWKGGSKAQYSQASQNIRVVGAEVAYLVQVLSTSLNYAPENVHIIGHSLGAHTAGEAGKRLNGLVGRITGLDPAEPYFQDTPEEVRLDPSDAKFVDVIHTDISPILPSLGFGMSQKVGHMDFFPNGGKDMPGCKTGISCNHHRSIEYYHSSILNPEGFLGYPCASYDEFQESGCFPCPAKGCPKMGHFADQYPGKTNAVEQTFFLNTGASDNFTRWRYKVTVTLSGEKDPSGNINVALLGKNGNSAQYQVFKGTLKPDASYTNSIDVELNVGTIQKVTFLWKRSGISVSKPKMGASRITVQSGKDGTKYNFCSSDIVQENVEQTLSPC
As to B4, the Km in the data set with p-NP-C4 stood at 1 mM; with triacetin, 120 mM; in the data set with tributyrin it was 0.45 mM; with tripropionin, 10.5 mM; in the data set with vinyl acetate, 295 mM; in the data set with vinyl butyrate it was 20 mM. The Km in the data set with vinyl laurate was determined as 1.25 mM; with vinyl propionate, 50 mM. The kcat with p-NP-C4 was found to be 50 s⁻¹; in the data set with triacetin, 555 s⁻¹; in the data set with tributyrin, 1500 s⁻¹; with tripropionin, 750 s⁻¹; with vinyl acetate, 70 s⁻¹; in the data set with vinyl butyrate, 200 s⁻¹. Further, the turnover number (kcat) in the data set with vinyl laurate worked out at 125 s⁻¹; with vinyl propionate it was 270 s⁻¹. The kcat/Km in the data set with p-NP-C4 worked out at 50000 M⁻¹ s⁻¹; with triacetin, 4630 M⁻¹ s⁻¹; with tributyrin it was 3.33e+06 M⁻¹ s⁻¹; in the data set with tripropionin, 71400 M⁻¹ s⁻¹; in the data set with vinyl acetate, 237 M⁻¹ s⁻¹; in the data set with vinyl butyrate, 10000 M⁻¹ s⁻¹. The specificity constant (kcat/Km) in the data set with vinyl laurate worked out at 100000 M⁻¹ s⁻¹; in the data set with vinyl propionate, 5400 M⁻¹ s⁻¹.

B5: unnamed (protein)
chain: MRSSLVLFFVSAWTALASPIRREVSQDLFNQFNLFAQYSAAAYCGKNNDAPAGTNITCTGNACPEVEKADATFLYSFEDSGVGDVTGFLALDNTNKLIVLSFRGSRSIENWIGNLNFDLKEINDICSGCRGHDGFTSSWRSVADTLRQKVEDAVREHPDYRVVFTGHSLGGALATVAGADLRGNGYDIDVFSYGAPRVGNRAFAEFLTVQTGGTLYRITHTNDIVPRLPPREFGYSHSSPEYWIKSGTLVPVTRNDIVKIEGIDATGGNNQPNIPDIPAHLWYFGLIGTCL
Turning to B5, the Km with p-NP-C4 worked out at 2.5 mM; with tributyrin, 0.5 mM; with tripropionin, 14 mM; with vinyl acetate it was 280 mM; with vinyl butyrate, 20 mM; in the data set with vinyl laurate, 4 mM. In addition, the Km in the data set with vinyl propionate was found to be 100 mM. In addition, the kcat amounted to 580 s⁻¹ with p-NP-C4; 2250 s⁻¹ with tributyrin; 225 s⁻¹ with tripropionin; 455 s⁻¹ in the data set with vinyl acetate; 2600 s⁻¹ with vinyl butyrate; 12000 s⁻¹ with vinyl laurate. The kcat with vinyl propionate came to 1950 s⁻¹. Besides, the specificity constant (kcat/Km) with p-NP-C4 was determined as 232000 M⁻¹ s⁻¹; in the data set with tributyrin it was 4.5e+06 M⁻¹ s⁻¹; with tripropionin, 16100 M⁻¹ s⁻¹; with vinyl acetate, 1630 M⁻¹ s⁻¹; with vinyl butyrate, 130000 M⁻¹ s⁻¹; with vinyl laurate, 3e+06 M⁻¹ s⁻¹. Besides, the catalytic efficiency (kcat/Km) with vinyl propionate was 19500 M⁻¹ s⁻¹.

B6: unnamed (protein)
chain: MTEPTVARPDIDPVLKMLLDTFPVTFTAADGVEVARARLRQLKTPPELLPELRIEERTVGYDGLTDIPVRVYWPPVVRDNLPVVVYYHGGGWSLGGLDTHDPVARAHAVGAQAIVVSVDYRLAPEHPYPAGIDDSWAALRWVGENAAELGGDPSRIAVAGDSAGGNISAVMAQLARDVGGPPLVFQLLWYPTTMADLSLPSFTENADAPILDRDVIDAFLAWYVPGLDISDHTMLPTTLAPGNADLSGLPPAFIGTAEHDPLRDDGACYAELLTAAGVSVELSNEPTMVHGYVNFALVVPAAAEATGRGLAALKRALHA
Take B6: in the data set with p-NP-C4, the Km amounted to 0.05 mM, the turnover number (kcat) was 185 s⁻¹ and the kcat/Km is 3.7e+06 M⁻¹ s⁻¹.

(Values after the PETadex activity labels (doi:10.1016/j.bbalip.2005.11.003).)
